In general, Kd refers to a measure of binding affinity in units of concentration. A low value points to higher affinity.

In the assay the target is T1, Ribosomal protein S19 from Mycobacterium tuberculosis (MtbS19, residues 1-93) (Mycobacterium tuberculosis strain H37Rv, UniProt P9WH45 1-93).
T1 construct: 30S ribosomal protein S19, M. tuberculosis H37Rv, residues 1-93; pET-28a with thrombin-cleavable N-terminal His6-tag; Surmise: a few vector residues remain at the N-terminus after thrombin cleavage; In PDB 5V93 residues 84-93 of S19 are absent; not shown: His6, N-terminal, cleaved
The assay is described as follows: SPR; Biacore T200, 298 K; […]; 20 mM potassium phosphate pH 7.2, 100 mM KCl; […]. The note with it: both partners purified.

T1 sequence (P9WH45 whole entry, the tested form may be a part): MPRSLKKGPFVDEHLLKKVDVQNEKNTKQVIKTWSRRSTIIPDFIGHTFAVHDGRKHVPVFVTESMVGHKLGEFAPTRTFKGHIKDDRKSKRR

B1: C-terminal domain of RimM from Mycobacterium tuberculosis (MtbRimMCTD, residues 101-176), wild type (domain or fragment)
chain: DTYYDHQLVGLMVQTATGEGVGVVTEVVHTAAGELLAVKRDSDEVLVPFVRAIVTSVSLDDGIVEIDPPHGLLNLE
notes: A starting Met stands before D101 (Nde I site); Surmise: pET-22b with Xho I adds Leu-Glu before the His6 tag; Theoretical Mw of the recombinant protein printed as 9.28 kDa; 15N-labelled in the NMR titrations, unlabelled in SPR; also called WT MtbRimMCTD; not shown: His6, C-terminal, kept
With B1, binding was put at a Kd of 2.16 µM.

B2: MtbRimMCTD E144A (domain or fragment)
chain: DTYYDHQLVGLMVQTATGEGVGVVTEVVHTAAGELLAVKRDSDAVLVPFVRAIVTSVSLDDGIVEIDPPHGLLNLE
notes: Same limits and tag as m1; not shown: His6, C-terminal, kept
For the molecule B2, the binding result was “binds”.

B3: MtbRimMCTD E126A (domain or fragment)
chain: DTYYDHQLVGLMVQTATGEGVGVVTAVVHTAAGELLAVKRDSDEVLVPFVRAIVTSVSLDDGIVEIDPPHGLLNLE
notes: as for B2
Take B3: the binding result was “binds”.

B4: MtbRimMCTD H129A (domain or fragment)
chain: DTYYDHQLVGLMVQTATGEGVGVVTEVVATAAGELLAVKRDSDEVLVPFVRAIVTSVSLDDGIVEIDPPHGLLNLE
notes: as for B2
Molecule B4 returned a Kd of 12.7 µM.

B5: MtbRimMCTD D105A (domain or fragment)
chain: DTYYAHQLVGLMVQTATGEGVGVVTEVVHTAAGELLAVKRDSDEVLVPFVRAIVTSVSLDDGIVEIDPPHGLLNLE
notes: Same limits and tag as m1; also called MtbRimM D105A; not shown: His6, C-terminal, kept
Take B5: the Kd worked out at 7.06 µM.
